# Data taken from patent publication US20180362645A1.
# Legend:
# Experiment in all cases: cell-based or functional assay
# [1] = target: human pituitary adenylate cyclase-activating polypeptide type I receptor (human) (UniProt P41586)
# VPAC1 = target: T1, VPAC1
# T1 sequence (P32241 whole entry, species assumed, looked up): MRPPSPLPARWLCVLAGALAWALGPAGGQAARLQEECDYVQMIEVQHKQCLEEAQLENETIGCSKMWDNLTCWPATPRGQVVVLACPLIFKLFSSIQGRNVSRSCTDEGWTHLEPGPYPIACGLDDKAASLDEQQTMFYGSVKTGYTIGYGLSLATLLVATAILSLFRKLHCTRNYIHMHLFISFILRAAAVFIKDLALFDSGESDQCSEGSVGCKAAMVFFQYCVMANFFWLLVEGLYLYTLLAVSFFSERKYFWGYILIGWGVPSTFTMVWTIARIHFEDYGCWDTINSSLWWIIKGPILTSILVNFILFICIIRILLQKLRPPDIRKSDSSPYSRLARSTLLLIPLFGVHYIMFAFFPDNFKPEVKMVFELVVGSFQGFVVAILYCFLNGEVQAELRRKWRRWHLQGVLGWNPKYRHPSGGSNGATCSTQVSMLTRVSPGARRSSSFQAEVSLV
# VPAC2 = target: T2, VPAC2
# T2 sequence (P41587 whole entry, species assumed, looked up): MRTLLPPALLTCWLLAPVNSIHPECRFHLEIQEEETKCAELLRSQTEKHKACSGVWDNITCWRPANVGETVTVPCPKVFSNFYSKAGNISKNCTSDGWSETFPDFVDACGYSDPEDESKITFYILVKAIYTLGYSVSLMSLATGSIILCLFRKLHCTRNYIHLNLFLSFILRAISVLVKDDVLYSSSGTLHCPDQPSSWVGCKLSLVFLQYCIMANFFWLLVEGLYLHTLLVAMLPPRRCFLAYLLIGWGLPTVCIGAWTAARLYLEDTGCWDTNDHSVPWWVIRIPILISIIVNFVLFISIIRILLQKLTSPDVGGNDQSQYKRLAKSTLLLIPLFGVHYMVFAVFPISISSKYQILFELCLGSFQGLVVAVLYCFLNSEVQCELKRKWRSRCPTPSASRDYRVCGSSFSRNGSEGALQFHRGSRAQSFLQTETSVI
# Sequence of Maxadilan (P30659 24-84 limits assumed): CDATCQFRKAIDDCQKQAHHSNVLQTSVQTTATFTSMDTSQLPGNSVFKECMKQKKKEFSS
# Sequence of human pituitary adenylate cyclase-activating polypeptide type I receptor (human) (P41586 21-468): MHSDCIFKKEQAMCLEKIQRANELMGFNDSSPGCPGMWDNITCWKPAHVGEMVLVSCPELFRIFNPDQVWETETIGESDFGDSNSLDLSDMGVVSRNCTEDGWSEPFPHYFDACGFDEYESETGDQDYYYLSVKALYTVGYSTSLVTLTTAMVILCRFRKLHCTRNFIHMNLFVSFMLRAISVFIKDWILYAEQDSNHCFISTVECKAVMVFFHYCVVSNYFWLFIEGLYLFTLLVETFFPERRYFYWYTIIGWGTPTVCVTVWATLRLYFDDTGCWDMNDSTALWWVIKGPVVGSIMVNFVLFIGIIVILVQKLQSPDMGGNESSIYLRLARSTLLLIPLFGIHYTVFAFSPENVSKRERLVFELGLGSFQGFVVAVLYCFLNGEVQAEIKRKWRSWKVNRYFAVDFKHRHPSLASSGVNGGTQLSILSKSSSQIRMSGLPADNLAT
substance,measurement,setting,value
Maxadilan (from UniProt P30659 24-84) (ligand),PAC1 EC50 (agonist activity),[1],0.06 nM
same,VPAC1 EC50 (agonist activity),VPAC1,> 1000 nM
same,VPAC2 EC50 (agonist activity),VPAC2,> 1000 nM
